{"source": "patent US20090226370A1", "target": "RFP-fused mouse full length COMP expressed in RCS cells (pDsRed1-N1-COMP) (mouse) (UniProt Q9R0G6)", "sequence (Q9R0G6 20-755)": "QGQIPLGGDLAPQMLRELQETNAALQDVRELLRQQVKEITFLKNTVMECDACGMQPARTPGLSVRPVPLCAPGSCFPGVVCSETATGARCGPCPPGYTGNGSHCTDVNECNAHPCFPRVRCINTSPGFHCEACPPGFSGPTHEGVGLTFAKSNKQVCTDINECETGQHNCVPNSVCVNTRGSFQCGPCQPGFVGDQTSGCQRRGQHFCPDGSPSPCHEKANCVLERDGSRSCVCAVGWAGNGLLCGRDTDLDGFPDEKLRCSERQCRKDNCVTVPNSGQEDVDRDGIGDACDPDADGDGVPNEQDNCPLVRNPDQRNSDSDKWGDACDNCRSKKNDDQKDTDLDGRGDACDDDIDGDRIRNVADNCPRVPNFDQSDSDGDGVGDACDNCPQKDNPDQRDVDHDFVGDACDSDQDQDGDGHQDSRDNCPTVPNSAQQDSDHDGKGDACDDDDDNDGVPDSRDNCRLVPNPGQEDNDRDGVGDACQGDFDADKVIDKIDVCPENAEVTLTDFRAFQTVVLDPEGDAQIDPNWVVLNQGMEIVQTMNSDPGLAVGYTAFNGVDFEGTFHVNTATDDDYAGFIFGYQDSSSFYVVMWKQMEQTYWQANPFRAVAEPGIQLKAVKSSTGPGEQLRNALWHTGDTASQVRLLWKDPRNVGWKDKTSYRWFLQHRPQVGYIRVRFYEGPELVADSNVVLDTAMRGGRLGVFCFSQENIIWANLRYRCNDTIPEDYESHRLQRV", "assay": "cell-based or functional assay", "data": [{"substance": "GFP-linked GEP expressed in RCS cells (pEGFP-GEP) (ligand)", "values": [{"measurement": "enhancement of GEP-mediated stimulation of RCS cell proliferation by coexpression of COMP, day 2 (viable cell count)", "value": 2.3, "unit": "fold"}, {"measurement": "enhancement of GEP-mediated stimulation of RCS cell proliferation by coexpression of COMP, day 3 (viable cell count)", "value": 2.1, "unit": "fold"}, {"measurement": "enhancement of GEP-mediated stimulation of RCS cell proliferation by coexpression of COMP, day 4 (viable cell count)", "value": 1.7, "unit": "fold"}, {"measurement": "enhancement of GEP-mediated stimulation of RCS cell proliferation by coexpression of COMP, day 5 (viable cell count)", "value": 1.5, "unit": "fold"}]}]}
